The text below walks through data of patent publication US20160194391A1 (AstraZeneca / MedImmune, published 2016).

Experiment [1] deals with T1, human IL-6 (human, UniProt P05231 30-212). In words: cell-based or functional assay.
For experiment [2], the target named is T2, Primate IL-6 (Macaca mulatta, UniProt P51494).
T2 sequence (cytokine, looked up): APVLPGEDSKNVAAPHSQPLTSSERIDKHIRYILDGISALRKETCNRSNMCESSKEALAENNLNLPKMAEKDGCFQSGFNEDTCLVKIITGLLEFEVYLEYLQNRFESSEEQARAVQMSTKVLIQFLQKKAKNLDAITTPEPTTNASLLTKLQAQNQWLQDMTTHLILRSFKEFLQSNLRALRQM
In words: cell-based or functional assay.

The target of experiment [3] is T3, human IL-12 (human, UniProt P29459 23-219; P29460 23-328).
T3 construct: Bioassay used Prospec-Tany Cyt-362
T3 sequence (looked up) 1: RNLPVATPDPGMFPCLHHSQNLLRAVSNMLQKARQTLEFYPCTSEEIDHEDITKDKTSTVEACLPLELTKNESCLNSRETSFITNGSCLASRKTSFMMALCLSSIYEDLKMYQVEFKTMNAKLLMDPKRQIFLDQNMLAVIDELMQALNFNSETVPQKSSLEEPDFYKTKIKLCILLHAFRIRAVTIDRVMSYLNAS
T3 sequence (looked up) 2: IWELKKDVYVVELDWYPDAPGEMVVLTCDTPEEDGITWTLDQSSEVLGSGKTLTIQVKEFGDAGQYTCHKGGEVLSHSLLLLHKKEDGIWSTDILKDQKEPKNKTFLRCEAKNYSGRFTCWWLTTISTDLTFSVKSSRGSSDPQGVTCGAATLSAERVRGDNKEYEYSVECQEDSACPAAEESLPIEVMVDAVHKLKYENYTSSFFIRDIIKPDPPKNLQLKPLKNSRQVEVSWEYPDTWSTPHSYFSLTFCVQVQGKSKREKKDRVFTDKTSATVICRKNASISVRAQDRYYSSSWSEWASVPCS
In words: ELISA, human IL-12 coated on the plate; 13A8 is the anti IL-6 negative control [Binding to Human IL-12].

Experiment [4] has as its target T1, human IL-6. In words: SPR (SensiQ Pioneer), mAb captured on protein G, IL-6 as analyte (3×FLAG-IL-6 or IL-6 CYT-213, 1-100 nM), 25 C, 1:1 model. How it is done:
Equilibrium constants for rabbit human chimeric mAbs were determined by binding the mAb to the protein G coated chip followed by binding of each analyte (IL-6 or IL-23) to its respective mAb. In order to minimize mass transfer effects, the surface densities of the mAbs for each analyte were adjusted so that as analyte binding approached saturation its corresponding RU fell between 200 and 300. […] For each binding and dissociation cycle the chip surface was regenerated with 15 uL of 20 mM NaOH (5671-02, Mallinckrodt Baker, Philliphsburg, N.J.). The assay temperature was maintained at 25° C. with an analyte flow rate of 50 μL/min and included a 2 minute association phase and 10-30 minute dissociation phase. The on/off rates (kₐ/kd) and dissociation constants (KD) were determined using the format described above along with pseudo-first-order 1:1 interaction model software (Qdat, ICx Nomadics, Stillwater, Okla.).

For experiment [5], the target named is T4, monkey IL-12 (macaque) (macaque, UniProt P48091 23-219; P48095 23-328).
T4 construct: also called macaque IL-12
T4 sequence (looked up) 1: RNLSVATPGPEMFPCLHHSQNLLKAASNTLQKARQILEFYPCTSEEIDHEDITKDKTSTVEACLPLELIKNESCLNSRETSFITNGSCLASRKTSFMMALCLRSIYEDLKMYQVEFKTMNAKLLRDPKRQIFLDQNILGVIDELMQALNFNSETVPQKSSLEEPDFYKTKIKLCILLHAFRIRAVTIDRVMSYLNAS
T4 sequence (looked up) 2: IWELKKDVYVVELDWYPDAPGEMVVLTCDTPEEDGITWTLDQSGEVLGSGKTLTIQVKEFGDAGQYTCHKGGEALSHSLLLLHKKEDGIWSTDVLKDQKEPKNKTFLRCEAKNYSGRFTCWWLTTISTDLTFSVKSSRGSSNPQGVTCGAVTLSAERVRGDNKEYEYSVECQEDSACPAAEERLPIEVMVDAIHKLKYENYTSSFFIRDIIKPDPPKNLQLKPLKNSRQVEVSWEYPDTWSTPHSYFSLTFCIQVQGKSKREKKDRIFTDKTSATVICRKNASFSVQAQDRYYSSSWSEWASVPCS
In words: ELISA, monkey (macaque) IL-12 coated on the plate; 13A8 is the anti IL-6 negative control [Binding to Monkey IL-12].

The target in experiment [6] is T5, human IL-12 p40 subunit (human, UniProt P29460 23-328).
T5 construct: Coated on ELISA plates
T5 sequence (looked up): T3 sequence (looked up) 2
In words: ELISA, human IL-12 p40 subunit coated on the plate; 13A8 is the anti IL-6 negative control [Binding to human IL-12 p40].

Experiment [7] concerns the target T6, primate IL-23 (p40:p19 fusion, 6×HIS) (primate).
T6 chain: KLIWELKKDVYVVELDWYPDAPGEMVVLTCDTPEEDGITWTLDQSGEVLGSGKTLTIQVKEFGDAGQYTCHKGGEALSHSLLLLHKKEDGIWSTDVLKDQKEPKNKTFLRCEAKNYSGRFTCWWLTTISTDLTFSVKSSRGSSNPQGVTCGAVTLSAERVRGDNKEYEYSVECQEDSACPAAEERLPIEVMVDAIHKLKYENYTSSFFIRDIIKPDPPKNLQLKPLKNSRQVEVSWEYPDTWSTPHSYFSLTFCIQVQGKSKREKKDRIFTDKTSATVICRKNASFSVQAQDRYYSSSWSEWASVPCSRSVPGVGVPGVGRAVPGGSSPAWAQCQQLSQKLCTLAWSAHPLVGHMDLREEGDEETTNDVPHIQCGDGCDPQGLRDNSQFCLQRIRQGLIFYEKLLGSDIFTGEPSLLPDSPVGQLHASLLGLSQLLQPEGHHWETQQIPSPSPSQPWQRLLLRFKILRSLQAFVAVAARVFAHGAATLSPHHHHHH
In words: cell-based or functional assay.

Experiment [8] addresses T3, human IL-12. In words: ELISA, human IL-12 coated on the plate; antibody concentration not given [Binding to Human IL-12].
For experiment [9], the target named is T5, human IL-12 p40 subunit. In words: ELISA, human IL-12 p40 subunit coated on the plate; antibody concentration not given [Binding to human IL-12 p40].
The target in experiment [10] is T1, human IL-6. In words: cell-based or functional assay. The source holds these as a separate data set.
Experiment [11] deals with T2, Primate IL-6. In words: cell-based or functional assay. The source holds these as a separate data set.

Like-named read-outs stand apart in the source and are kept apart here.

B1: 13A8 chimeric mAb (antibody, V domains shown)
VH: QSVEESGGRLVTPGTPLTLTCTVSGIDLSSYDMSWVRQAPGKGLEWIGYIYTDSSTWYANWAKGRFTISKTSSTTVDLKMTSLTTEDTATYFCAKGSTDYAFDTRLDLWGPGTLVTVSS
VL: NIVMTQTPSPVSGAVGGTVTINCQASQSISNELSWYQQKPGQPPRLLIYRASTLTSGVSSRFKGSGAGTQFTLTISGVECADAATYYCQQGYNSNDVDNVFGGGTKVVVVR
notes: HEK293; also called 13A8 clone
With B1, the “EC50, inhibition of IL-6 induced B9 cell proliferation” value in [1] came to 0.034 ng/mL. In addition, in experiment [2], the “IC50 (read off the curve) (B9 proliferation, OD570-600)” value is about 0.4 ng/mL. For the same molecule, the binding result in [3] is on record as “no binding”. In experiment [4], this molecule had a Kd of 0.218 nM, a koff of 0.000138 s⁻¹ and a kon of 633000 M⁻¹ s⁻¹. Besides, the binding result in experiment [5] was “no binding”. For the same molecule, the binding result in experiment [6] is given as “no binding”.

B2: 31A12 chimeric mAb (antibody, V domains shown)
VH: QSLEESGGRLVTPGTPLTLTCTASGFSLSSYWMTWVRQAPGGGLEWIGTIATSSTYYASWAKGRFTISRTSTTVDLKMTSLTTEDTATYFCARGLTTDYDLDLWGPGTLVTVSS
VL: LVMTQTPASVSAAVGGTVTINCQASEDIESYLAWYQQKPGQRPKLLIYSASTLTSGVPSRFKGSGSGKQFTLTISGVQREDAATYYCLGADDTTTVFGGGTKVVVVR
notes: Rabbit/human chimeric IgG (human IgG1, kappa); HEK293; also called 31A12 mAb
In the case of B2, the “IC50 (read off the curve) (IL-17 from mouse splenocytes, OD450)” value in [7] was about 0.2 ng/mL. The binding result in experiment [8] and in [9] was “binds” in each case.

B3: 9H4 chimeric mAb (antibody, V domains shown)
VH: QSLEESGGRLVTPGTPLTLTCTASGFSLSSYDMSWVRQAPGKGLEWIGYIYTDTSTYYANWAKGRFSISKTSTTVDLKMTSLTAEDTATYFCAKGSTDYAFDTRLDLWGPGTLVTVSS
VL: YDMTQTPASVEVAMGGTVTIKCQASQSISNELSWYQQKPGQPPKLLIYRTSTLASGVSSRFKGSGSGTEYTLTISGVECADAATYYCQQGYNSNDVDNVFGGGTEVVVVR
notes: Rabbit/human chimeric IgG (human IgG1, kappa); HEK293; also called 9H4 clone
For B3, the “EC50, inhibition of IL-6 induced B9 cell proliferation” value in experiment [10] was determined as 0.109 ng/mL. Further, in experiment [11], the “IC50 (read off the curve) (B9 proliferation, OD570-600)” value was about 10 ng/mL. In [4], this molecule had a Kd of 0.058 nM, an off-rate constant (koff) of 4.75e-05 s⁻¹ and a kon of 816000 M⁻¹ s⁻¹.
